Test results published in the supplement of paper PMC6757056.
± gives the standard deviation of the averaged measurements.

B1: library; a variant is named by its letters at N, in order (parent)
chain: GCUGUCACCGGUGCUUGGUACGUUAUAUUCAGCCGGUCUGAUGAGUCUNNNNNNAGACGAAACAGC

Experiments:
(6R,S)-folinic acid [1] = variants of: B1; assay: normalized RNA/DNA level without ligand (relative to sTRSVctl = 100) (log10 (% of sTRSVctl)); HEK293T overexpressing SLC46A1; higher = less ribozyme self-cleavage, higher mRNA level; conditions: without (6R,S)-folinic acid; ligand present: no
Outline: (§1)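 Only sequences with at least 100 DNA reads were analyzed, from HEK293T cells transfected with 4 µg per 6-well well of ribozyme switch library plasmids 72 h before RNA extraction with EDTA. Any ligand was added 1 h before transfection. RNA level was defined as RNA over DNA reads, normalized to a spiked-in non-cleaving sequence or to the top sequences, then scaled and log-transformed. The top set was 25 sequences, and the scaling was ×100 followed by log10.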

(6R,S)-folinic acid [2] = variants of: B1; assay: normalized RNA/DNA level with ligand (relative to sTRSVctl = 100) (log10 (% of sTRSVctl)); HEK293T overexpressing SLC46A1; ligand concentration (+) RNA-Seq: 6 mM; higher = less ribozyme self-cleavage, higher mRNA level; conditions: with (6R,S)-folinic acid; ligand present: yes
Outline: as §1

| Variant | normalized RNA/DNA level without ligand (log10) ((6R,S)-folinic acid [1]) | normalized RNA/DNA level with ligand (log10) ((6R,S)-folinic acid [2]) |
| --- | --- | --- |
| GCUUGU | 2.004 ± 0.017 | 2.04 ± 0.058 |
| GCUUGC | 2.052 ± 0.01 | 2.01 ± 0.022 |
| GCUUGA | 1.999 ± 0.0031 | 2.024 ± 0.018 |
| GCUUGG | 1.932 ± 0.015 | 2.02 ± 0.028 |
| ACUGCU | 2.0021 ± 0.002 | 2.008 ± 0.015 |
| ACUGCC | 2.06 ± 0.024 | 2.06 ± 0.039 |
| ACUGCG | 1.902 ± 0.011 | 2.013 ± 0.013 |
| ACUGCA | 2.02 ± 0.013 | 2.05 ± 0.009 |
| AGAAAG | 1.901 ± 0.0062 | 2.01 ± 0.022 |
| AGAAAA | 1.984 ± 0.0076 | 2 ± 0.034 |
| AGAAAU | 2.026 ± 0.0034 | 2.01 ± 0.044 |
| AGAAAC | 2.0013 ± 0.00088 | 2.01 ± 0.026 |
| CCUGAG | 1.932 ± 0.019 | 1.97 ± 0.025 |
| CCUGAA | 2.0009 ± 0.0006 | 2 ± 0.044 |
| CCUGAC | 2 ± 0.0059 | 1.993 ± 0.0097 |
| CCUGGA | 2.046 ± 0.0022 | 2.068 ± 0.0024 |
| CCUGGC | 2.051 ± 0.013 | 2.05 ± 0.045 |
| CCUGGG | 2.012 ± 0.01 | 2.017 ± 0.0021 |
| CCUGGU | 2.044 ± 0.0037 | 2.088 ± 0.011 |
| GCUUAG | 1.9687 ± 0.00031 | 2.015 ± 0.013 |
| GCUUAU | 1.942 ± 0.015 | 2.003 ± 0.006 |
| GGAAGU | 1.978 ± 0.0031 | 2.01 ± 0.032 |
| GGAAGC | 1.9092 ± 0.0019 | 1.99 ± 0.044 |

| Variant | normalized RNA/DNA level without ligand (log10) ((6R,S)-folinic acid [1]) | normalized RNA/DNA level with ligand (log10) ((6R,S)-folinic acid [2]) |
| --- | --- | --- |
| GGAAGG | 1.95 ± 0.022 | 2.03 ± 0.04 |
| GCUGCG | 2.002 ± 0.0047 | 2.05 ± 0.029 |
| GCUGCU | 2.04 ± 0.027 | 2.055 ± 0.018 |
| GCUGCA | 2.01 ± 0.022 | 2.03 ± 0.047 |
| ACUACG | 1.938 ± 0.0043 | 2.006 ± 0.02 |
| ACUACU | 2.022 ± 0.02 | 2.041 ± 0.0021 |
| ACUACC | 2.03 ± 0.0033 | 2.01 ± 0.04 |
| CCUUGU | 2.01 ± 0.04 | 2.005 ± 0.013 |
| CCUUGG | 2.047 ± 0.016 | 2.01 ± 0.022 |
| CCUUGC | 2.004 ± 0.0087 | 2.05 ± 0.039 |
| CCUUGA | 2.017 ± 0.0066 | 2.03 ± 0.027 |
| CCUGUA | 2.018 ± 0.012 | 2.04 ± 0.022 |
| CCUGUG | 2.0488 ± 0.00073 | 2.03 ± 0.038 |
| CCUGUU | 2.02 ± 0.021 | 2.015 ± 0.014 |
| CCUGUC | 2.022 ± 0.0031 | 2.01 ± 0.041 |
| CCUCAA | 2.0335 ± 0.00095 | 2 ± 0.059 |
| CCUCAG | 1.94 ± 0.024 | 1.96 ± 0.0042 |
| CCUCAC | 2.0541 ± 0.0006 | 2.027 ± 0.013 |
| CCUCAU | 2.03 ± 0.025 | 2 ± 0.054 |
| ACUGGC | 2.045 ± 0.016 | 2.005 ± 0.016 |
| ACUGGA | 1.943 ± 0.0043 | 2 ± 0.058 |
| ACUGGU | 1.952 ± 0.016 | 2 ± 0.07 |
| CCUAGA | 2.05 ± 0.016 | 2.05 ± 0.046 |

| Variant | normalized RNA/DNA level without ligand (log10) ((6R,S)-folinic acid [1]) | normalized RNA/DNA level with ligand (log10) ((6R,S)-folinic acid [2]) |
| --- | --- | --- |
| CCUAGU | 2.074 ± 0.0064 | 2.06 ± 0.029 |
| CCUAGG | 2.05 ± 0.03 | 2.043 ± 0.0025 |
| GCUAGG | 1.951 ± 0.016 | 2.031 ± 0.0073 |
| GCUAGA | 2.002 ± 0.0075 | 2.042 ± 0.012 |
| GCUAGU | 1.98 ± 0.024 | 2.01 ± 0.046 |
| GCUAGC | 2.035 ± 0.017 | 2.016 ± 0.012 |
| GGAAAU | 1.98 ± 0.025 | 2.04 ± 0.027 |
| ACUAGC | 2 ± 0.011 | 2.02 ± 0.025 |
| ACUAGU | 2.02 ± 0.02 | 2.05 ± 0.026 |
| ACUAGA | 1.969 ± 0.014 | 2.01 ± 0.039 |
| ACUAGG | 1.912 ± 0.015 | 1.99 ± 0.038 |
| CCUCGG | 2.078 ± 0.0042 | 1.99 ± 0.012 |
| CCUCGU | 2.01 ± 0.037 | 2.01 ± 0.07 |
| CCUCGC | 2.08 ± 0.03 | 2.033 ± 0.017 |
| CCUCGA | 1.998 ± 0.011 | 2.02 ± 0.029 |
| AGAAGC | 2.004 ± 0.0023 | 2.049 ± 0.016 |
| AGAAGU | 1.938 ± 0.007 | 1.9746 ± 0.00065 |
| AGAAGG | 1.931 ± 0.019 | 2.01 ± 0.037 |
| AGAAGA | 1.949 ± 0.0067 | 2.02 ± 0.025 |
| GCUUCC | 2.029 ± 0.0087 | 2.04 ± 0.034 |
| GCUUCU | 2.0037 ± 0.0006 | 2.01 ± 0.048 |
| GCUUCG | 2.024 ± 0.015 | 2.02 ± 0.025 |
| GCUACU | 2.019 ± 0.0099 | 1.98 ± 0.043 |

| Variant | normalized RNA/DNA level without ligand (log10) ((6R,S)-folinic acid [1]) | normalized RNA/DNA level with ligand (log10) ((6R,S)-folinic acid [2]) |
| --- | --- | --- |
| GCUACG | 2.026 ± 0.0068 | 2.065 ± 0.0045 |
| GCUAUC | 2.083 ± 0.0023 | 2.013 ± 0.019 |
| GCUAUG | 1.99 ± 0.022 | 2.02 ± 0.035 |
| GCUAUU | 2.054 ± 0.013 | 2.04 ± 0.041 |
| UCUGAU | 1.973 ± 0.008 | 2 ± 0.046 |
| UCUGAG | 1.745 ± 0.011 | 1.98 ± 0.03 |
| UCUGAA | 1.911 ± 0.0014 | 1.98 ± 0.05 |
| UCUGAC | 2.011 ± 0.0043 | 2.01 ± 0.052 |
| UGAAGC | 1.964 ± 0.018 | 2 ± 0.021 |
| CCUCCU | 2.06 ± 0.036 | 2.037 ± 0.0023 |
| CCUCCC | 2.095 ± 0.016 | 2.0404 ± 0.0018 |
| CCUCCG | 2.07 ± 0.029 | 2.049 ± 0.011 |
| ACUAUC | 2.063 ± 0.0022 | 2.04 ± 0.038 |
| ACUAUU | 2.027 ± 0.0052 | 2.02 ± 0.043 |
| ACUAUG | 1.9049 ± 0.00034 | 2.008 ± 0.016 |
| ACUAUA | 1.983 ± 0.012 | 2.013 ± 0.0097 |
| UCUCAA | 1.96 ± 0.0096 | 1.98 ± 0.024 |
| UCUCAU | 2.032 ± 0.015 | 2.023 ± 0.011 |
| UCUCAG | 1.958 ± 0.012 | 1.98 ± 0.027 |
| UCUCAC | 2.098 ± 0.0045 | 2.04 ± 0.035 |
| GCUCUC | 2.126 ± 0.0057 | 2.08 ± 0.039 |
| GCUCUU | 2.038 ± 0.014 | 1.998 ± 0.011 |
| GCUCUA | 2.01 ± 0.024 | 2.03 ± 0.018 |

| Variant | normalized RNA/DNA level without ligand (log10) ((6R,S)-folinic acid [1]) | normalized RNA/DNA level with ligand (log10) ((6R,S)-folinic acid [2]) |
| --- | --- | --- |
| CGAAGC | 2.02 ± 0.033 | 2.04 ± 0.042 |
| CGAAGA | 1.986 ± 0.0023 | 2.01 ± 0.049 |
| CGAAGU | 1.99 ± 0.03 | 2 ± 0.032 |
| CGAAGG | 1.859 ± 0.012 | 1.94 ± 0.022 |
| GCUUUU | 2.01 ± 0.047 | 2.02 ± 0.035 |
| GCUUUC | 2.0144 ± 0.0002 | 2.01 ± 0.029 |
| GCUUUG | 1.995 ± 0.015 | 2.02 ± 0.053 |
| UCUAUU | 2.048 ± 0.0024 | 2.046 ± 0.0024 |
| UCUAUC | 2.07 ± 0.024 | 2.062 ± 0.0087 |
| UCUAUG | 1.832 ± 0.017 | 2.022 ± 0.0024 |
| UCUAUA | 2 ± 0.032 | 2.04 ± 0.025 |
| UCUGUC | 2.056 ± 0.0093 | 2.07 ± 0.075 |
| UCUGUG | 1.773 ± 0.0022 | 2 ± 0.049 |
| UCUGUA | 1.961 ± 0.0025 | 2.04 ± 0.026 |
| AGAACG | 1.954 ± 0.0051 | 2.018 ± 0.016 |
| AGAACU | 2.036 ± 0.0042 | 2.075 ± 0.0036 |
| AGAACC | 2.02 ± 0.0077 | 2.01 ± 0.049 |
| AGAACA | 2.007 ± 0.0027 | 2.02 ± 0.045 |
| ACUCUG | 1.925 ± 0.018 | 2 ± 0.025 |
| ACUCUU | 2.0142 ± 0.0018 | 2.01 ± 0.046 |
| ACUCUC | 2.086 ± 0.0057 | 2.06 ± 0.024 |
| ACUCUA | 2.005 ± 0.0056 | 2.01 ± 0.06 |
| GCUCAG | 1.96 ± 0.0025 | 2.02 ± 0.03 |
